Test results published in PMC9727766 (bioRxiv, 2022).

Experiments:
[1] = biological target: SARS-CoV-2 S protein, C-terminally truncated, Omicron BA.1, on 293T cells (SARS-CoV-2 Omicron BA.1 (B.1.1.529), …, strain); test: flow cytometry on cells
[2] = biological target: SARS-CoV-2 S protein, C-terminally truncated, Omicron BA.4/BA.5, on 293T cells (SARS-CoV-2 Omicron BA.4/BA.5, strain); test: flow cytometry on cells

B1: fp.006 monoclonal antibody (IgG) (antibody, V domains shown)
VH: EVQLVESGGGVVQPGGSLRLSCAASGFNFNNYALHWVRQAPGKGLEWVAIISYEARNKKYGVSVMGRFSISRDNSKSIMYLEMNSLRVEDTGVYYCARDLFLSDYDRSGYDPTRGGFDHWGQGTLVTVSS
VL: EIVMTQSPATLSVSPGERATLSCRASQSVSSSLAWYQHRFGQAPRLLISGASTRATGIPGRFSGSGSGTEFTLTISSLQSEDVAVYYCQQYGDWPLVTFGGGTKVEIK
fold increase of binding with soluble ACE2 [1]: 5.3 fold | fold increase of binding with soluble ACE2 [2]: 8.2 fold
